Laboratory results from article PMC9352680, “A comprehensive thermodynamic model for RNA binding by the Saccharomyces cerevisiae Pumilio protein PUF4”.
Changes are numbered by the printed parent chain. Names may count otherwise.

T1: PUF4 RNA-binding domain (Saccharomyces cerevisiae, UniProt P25339 537-888)
T1 sequence: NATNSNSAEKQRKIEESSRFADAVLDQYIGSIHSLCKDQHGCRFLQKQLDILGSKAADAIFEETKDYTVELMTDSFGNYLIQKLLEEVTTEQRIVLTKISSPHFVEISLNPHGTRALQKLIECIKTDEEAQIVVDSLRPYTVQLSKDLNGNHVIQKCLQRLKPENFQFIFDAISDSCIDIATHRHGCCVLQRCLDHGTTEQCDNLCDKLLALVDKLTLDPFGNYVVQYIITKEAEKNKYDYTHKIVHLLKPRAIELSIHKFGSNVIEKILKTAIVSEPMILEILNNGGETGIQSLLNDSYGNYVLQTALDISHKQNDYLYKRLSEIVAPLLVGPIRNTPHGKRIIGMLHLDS

B1: Id_ii_S2_P4E.2_K4.1_C4.2_[C-2G]_[T-1C]_H4.1_A4.1_F4.1_T4.2_[G10C]_[T11C] (ssRNA)
RNA: UUUGAUUAAUAUGAUAUCGUUCUUUCUGCUGUAUAUUACCUUCUUUCUCGAUAUCAUAUUAAUCUUU
B2: Id_ii_S2_P4E.2_K4.1_C4.2_[C-2G]_[T-1C]_H4.1_A4.1_F4.1_T4.2_[G10C] (ssRNA)
RNA: B1 RNA with C40U
B3: Id_ii_S2_P4E.2_K4.1_C4.2_[C-2G]_[T-1C]_H4.1_A4.1_F4.1_T4.2_[G10T]_[T11G] (ssRNA)
RNA: B1 RNA with C39U, C40G
B4: Id_ii_S2_P4E.2_K4.1_C4.2_[C-2G]_[T-1C]_H4.1_A4.1_F4.1_T4.2_[G10T]_[T11A] (ssRNA)
RNA: B1 RNA with C39U, C40A
B5: Id_ii_S2_P4E.2_K4.1_C4.2_[C-2G]_[T-1C]_H4.1_A4.1_F4.1_T4.2_[G10T] (ssRNA)
RNA: B1 RNA with C39U, C40U
B6: Id_ii_S2_P4E.2_K4.1_C4.2_[C-2G]_[T-1C]_H4.1_A4.1_F4.1_T4.2_[G10A]_[T11A] (ssRNA)
RNA: B1 RNA with C39A, C40A
B7: Id_ii_S2_P4E.2_K4.1_C4.2_[C-2G]_[T-1C]_H4.1_A4.1_F4.1_T4.2_[G10A] (ssRNA)
RNA: B1 RNA with C39A, C40U
B8: Id_ii_S2_P4E.2_K4.1_C4.2_[C-2G]_H4.1_A4.1_F4.1_T4.2_[G10C]_[T11C] (ssRNA)
RNA: B1 RNA with C29U
B9: Id_ii_S2_P4E.2_K4.1_C4.2_[C-2G]_H4.1_A4.1_F4.1_T4.2_[G10T]_[T11G] (ssRNA)
RNA: B1 RNA with C29U, C39U, C40G
B10: Id_ii_S2_P4E.2_K4.1_C4.2_[C-2G]_H4.1_A4.1_F4.1_T4.2_[G10T]_[T11C] (ssRNA)
RNA: B1 RNA with C29U, C39U
B11: Id_ii_S2_P4E.2_K4.1_C4.2_[C-2G]_H4.1_A4.1_F4.1_T4.2_[G10T]_[T11A] (ssRNA)
RNA: B1 RNA with C29U, C39U, C40A
B12: Id_ii_S2_P4E.2_K4.1_C4.2_[C-2G]_H4.1_A4.1_F4.1_T4.2_[G10A]_[T11A] (ssRNA)
RNA: B1 RNA with C29U, C39A, C40A
B13: Id_ii_S2_P4E.2_K4.1_C4.2_[C-2G]_H4.1_A4.1_F4.1_T4.2_[G10A] (ssRNA)
RNA: B1 RNA with C29U, C39A, C40U
B14: Id_ii_S2_P4E.2_K4.1_C4.2_[C-2T]_[T-1G]_H4.1_A4.1_F4.1_T4.2_[G10T]_[T11G] (ssRNA)
RNA: B1 RNA with G28U, C29G, C39U, C40G
B15: Id_ii_S2_P4E.2_K4.1_C4.2_[C-2T]_[T-1G]_H4.1_A4.1_F4.1_T4.2_[G10T]_[T11C] (ssRNA)
RNA: B1 RNA with G28U, C29G, C39U
B16: Id_ii_S2_P4E.2_K4.1_C4.2_[C-2T]_[T-1G]_H4.1_A4.1_F4.1_T4.2_[G10T] (ssRNA)
RNA: B1 RNA with G28U, C29G, C39U, C40U
B17: Id_ii_S2_P4E.2_K4.1_C4.2_[C-2T]_[T-1G]_H4.1_A4.1_F4.1_T4.2_[G10A]_[T11A] (ssRNA)
RNA: B1 RNA with G28U, C29G, C39A, C40A
B18: Id_ii_S2_P4E.2_K4.1_C4.2_[C-2T]_[T-1G]_H4.1_A4.1_F4.1_T4.2_[G10A] (ssRNA)
RNA: B1 RNA with G28U, C29G, C39A, C40U
B19: Id_ii_S2_P4E.2_K4.1_C4.2_[C-2T]_[T-1C]_H4.1_A4.1_F4.1_T4.2_[G10C]_[T11C] (ssRNA)
RNA: B1 RNA with G28U
B20: Id_ii_S2_P4E.2_K4.1_C4.2_[C-2T]_[T-1C]_H4.1_A4.1_F4.1_T4.2_[G10C] (ssRNA)
RNA: B1 RNA with G28U, C40U
B21: Id_ii_S2_P4E.2_K4.1_C4.2_[C-2T]_[T-1C]_H4.1_A4.1_F4.1_T4.2_[G10T]_[T11C] (ssRNA)
RNA: B1 RNA with G28U, C39U
B22: Id_ii_S2_P4E.2_K4.1_C4.2_[C-2T]_[T-1C]_H4.1_A4.1_F4.1_T4.2_[G10A]_[T11C] (ssRNA)
RNA: B1 RNA with G28U, C39A
B23: Id_ii_S2_P4E.2_K4.1_C4.2_[C-2T]_[T-1C]_H4.1_A4.1_F4.1_T4.2_[G10A]_[T11A] (ssRNA)
RNA: B1 RNA with G28U, C39A, C40A
B24: Id_ii_S2_P4E.2_K4.1_C4.2_[C-2T]_[T-1C]_H4.1_A4.1_F4.1_T4.2 (ssRNA)
RNA: B1 RNA with G28U, C39G, C40U
B25: Id_ii_S2_P4E.2_K4.1_C4.2_[C-2T]_[T-1A]_H4.1_A4.1_F4.1_T4.2_[G10C]_[T11C] (ssRNA)
RNA: B1 RNA with G28U, C29A
B26: Id_ii_S2_P4E.2_K4.1_C4.2_[C-2T]_[T-1A]_H4.1_A4.1_F4.1_T4.2_[G10T]_[T11C] (ssRNA)
RNA: B1 RNA with G28U, C29A, C39U

Molecular target: T1, PUF4 RNA-binding domain
Assay: Mg; RNA-MaP; 20 mM Na-HEPES pH 7.4, 30 mM KOAc, 0.75 mM MgCl2, 0.1% Tween-20, 5% glycerol, 0.1 mg/mL BSA, 2 mM DTT; 25 C; 0.0125-409.6 nM protein
Conditions: tags: N-His6-TEV cleaved; C-SNAP kept, Cy3B-labelled; label: tethered on chip by stalled RNA polymerase

Row | Binder | Kd [nM]
1 | B1 | 1.25
2 | B2 | 0.667
3 | B3 | 0.82
4 | UCUCUUUGUCUUAUAAUCUCUU (ssRNA) [Ib_S1_P5E.1_K5.1_C5.1_H5.1_[A4C]_A5.1_F5.1_[T9A]_T5.1] | 102
5 | B4 | 0.822
6 | B5 | 0.289
7 | B6 | 0.738
8 | B7 | 0.535
9 | B8 | 1.8
10 | B9 | 0.585
11 | B10 | 1.6
12 | B11 | 0.928
13 | B12 | 0.659
14 | B13 | 0.724
15 | UCUCUUUGUUUUAUAAUCUCUU (ssRNA) [Ib_S1_P5E.1_K5.1_C5.1_H5.1_[A4T]_A5.1_F5.1_[T9A]_T5.1] | 87.4
16 | B14 | 0.416
17 | B15 | 0.441
18 | B16 | 0.23
19 | B17 | 0.532
20 | B18 | 0.4
21 | B19 | 0.565
22 | B20 | 0.602
23 | B21 | 0.305
24 | B22 | 0.526
25 | B23 | 0.481
26 | UCUCUUGGUAUUAUUGUCUCUU (ssRNA) [Ib_S1_P5E.1_K5.1_C5.1_H5.1_[T1G]_A5.1_F5.1_[A10G]_T5.1] | > 2300
27 | B24 | 0.446
28 | B25 | 0.822
29 | B26 | 0.618
